# Results from the DeepSol protein solubility set.
# Test: soluble on expression in E. coli; label from the status in PepcDB or PDB records
row,Sequence,soluble on expression in E. coli
1,MGSSHHHHHHSSGLVPRGSMEFVKDLKTPEDYINNELKYGAHNYDPIPVVLKRAKGVFVYDVNDKRYYDFLSAYSSVNQGHCHPNILNAMINQAKNLTICSRAFFSVPLGICERYLTNLLGYDKVLMMNTGAEANETAYKLCRKWGYEVKKIPENMAKIVVCKNNFSGRTLGCISASTTKKCTSNFGPFAPQFSKVPYDDLEALEEELKDPNVCAFIVEPIQGEAGVIVPSDNYLQGVYDICKKYNVLFVADEVQTGLGRTGKLLCVHHYNVKPDVILLGKALSGGHYPISAVLANDDIMLVIKPGEHGSTYGGNPLAASICVEALNVLINEKLCENAEKLGGPFLENLKRELKDSKIVRDVRGKGLLCAIEFKNELVNVLDICLKLKENGLITRDVHDKTIRLTPPLCITKEQLDECTEIIVKTVKFFDERF,soluble
2,MGSSHHHHHHSSGRENLYFQGHMSKFVITCIAHGENLPKETIDQIAKEITESSAKDVSINGTKKLSARATDIFIEVAGSIVQKDLKNKLTNVIDSHNDVDVIVSVDNEYRQAKKLFVFDMDSTLIYQEVIELIAAYAGVEEQVHEITERAMNNELDFKESLRERVKLLQGLQVDTLYDEIKQKLEVTKGVPELCKFLHKKNCKLAVLSGGFIQFAGFIKDQLGLDFCKANLLEVDTDGKLTGKTLGPIVDGQCKSETLLQLCNDYNVPVEASCMVGDGGNDLPAMATAGFGIAWNAKPKVQKAAPCKLNTKSMTDILYILGYTDDEIYNRQ,soluble
3,MGSSHHHHHHSSGRENLYFQGMHYQPKQDLLNDRIILVTGASDGIGREAAMTYARYGATVILLGRNEEKLRQVASHINEETGRQPQWFILDLLTCTSENCQQLAQRIVVNYPRLDGVLHNAGLLGDVCPMSEQNPQVWQDVMQINVNATFMLTQALLPLLLKSDAGSLVFTSSSVGRQGRANWGAYAASKFATEGMMQVLADEYQQRLRVNCINPGGTRTAMRASAFPTEDPQKLKTPADIMPLYLWLMGDDSRRKTGMTFDAQPGRKPGISQ,soluble
4,MGSSHHHHHHSSGRENLYFQGMPSLTPRCIIVRAGQTEWSKSGQYTGLTDLPLTPYGEGQMLRTGESVFRNNQFLNPDNITYIFTSPRLRARQTVDLVLKPLSDEQRAKIRVVVDDDLREWEYGDYEGMLTREIIELRKSRGLDKERPWNIWRDGCENGETTQQIGLRLSRAIARIQNLHRKHQSEGRASDIMVFAHGHALRYFAAIWFGLGVQKKCETIEEIQNVKSYDDDTVPYVKLESYRHLVDNPCFLLDAGGIGVLSYAHHNIDEPALELAGPFVSPPEEESQHGDV,soluble
5,MGSSTGFHHADHVNYSSNLNKEEILEQLLLSYEGLSDGQVNWVCNLSNASSLIWHAYKSLAVDINWAGFYVTQASEENTLILGPFQGKVACQMIQFGKGVCGTAASTKETQIVPDVNKYPGHIACDGETKSEIVVPIISNDGKTLGVIDIDCLDYEGFDHVDKEFLEKLAKLINKSCVFK,soluble
6,MGSYLSVPAYFTSRDLFRCSECQDSLTNWYYEKDGKLYCPKDYWGKFGEFCHGCSLLMTGPFMVAGEFKYHPECFACMSCKVIIEDGDAYALVQHATLYCGKCHNEVVLAPMFERLSTESVQEQLPYSVTLISMPATTEGRRGFSVSVESACSNYATTVQVKEVNRMHISPNNRNAIHPGDRILEINGTPVRTLRVEEVEDAISQTSQTLQLLIEHDPVSQRLDQLRLEARLAPHMQNAGHPHALSTLDTKENLEGTLRRRSLRRSNSISKSPGPSSPKEPLLFSRDISRSESLRCSSSYSQQIFRPCDLIHGEVLGKGFFGQAIKVTHKATGKVMVMKELIRCDEETQKTFLTEVKVMRSLDHPNVLKFIGVLYKDKKLNLLTEYIEGGTLKDFLRSMDPFPWQQKVRFAKGIASGMAYLHSMCIIHRDLNSHNCLIKLDKTVVVADFGLSRLIVEERKRAPMEKATTKKRTLRKNDRKKRYTVVGNPYWMAPEMLNGKSYDETVDIFSFGIVLCEIIGQVYADPDCLPRTLDFGLNVKLFWEKFVPTDCPPAFFPLAAICCRLEPESRAPPGAAGEGPGCADDEGPVRRQGKVTIKYDPKELRKHLNLEEWILEQLTRLYDCQEEEISELEIDVDELLDMESDDAWASRVKELLVDCYKPTEAFISGLLDKIRAMQKLSTPQKK,soluble
7,MGTGQRKDPSQQRSQETVARILSATGQVLRAKGYTGCSTNAIAEAAGISKGSVYQYFANKDEIIEVLIDKIMEETTATFGTQLEQAVAKGTFLKDAALQSQLLAVLDRYCDILGSLLNDAPHLALTAHRSVRIEERCRDLLRTYVTLNPSAIGPGVDLEALLLVLTVSYREVSLEYLRRDLRDRRNELATVLYDMTMGGLAGRVTRGV,not soluble
8,MGTICDAASPTFMLQHWVRDRRRGSRISLEHAIKRQCHDTARLYGLDDRGVIAPGYLADINVIDFDRVRLLKPWLAFDLPAGGKRLLQKAEGYDYTIKGGKVTFRNGEWTGATPGNLIRGPQRADLMEAAELEHHHHHH,not soluble
9,MGTRSPHIVLRNATYLNSYIREWMQANIWIYDDRIIYVGEKLPEQLHECEVIDCDGKYVVPSYIEPHAHPYQLYNPETLANHAMQFGTTTFINDNLEHHHHHH,soluble
10,MGTVLFEDKASETKGSDIYHRIIPDAESYIKEQARTVLATLYNSPEDSITPVNKIHYTLEDIEGISAKGGGNGDVTIFYSTRHIEKSFAENDTAKLFFETRGVLLHELTHAYQLEPQGIGSYGTNRVFWAFIEGMADAVRVANGGFDGPNARPKGGNYMDGYRTAGYFFVWLRDNKDPEFLRKFNRSTLEVIPWSFDGAIKHILGTEYSIDELWHEYQVAVGDIQVLEHHHHHH,not soluble
11,MGTVMIRNVYKGVHNMKLENGWETSFLEVVQNSEFKKEALLSQLLCQDSEEVEELVDDYGYEELVEREHDDELAEILGEELFSEMERQVFLSSNPEEKLISFVNGLGFHVLDWIVLLETEFGIDSANFTSDAVKVLEKRFRQFPYIEDKTIFDMTFGESMDVLESVTGLQLKEKMNV,not soluble
12,MGVSPAAPASGIRRPCYLVLSSHDFRTPRRANIHFITDQLALRGTTRFFSLRYSRLSRMKGDMRLPLDDTANTVVSHNGVDCYLWRTTVHPFNTRRSWLRPVEDAMFRWYAAHPPKQLLDWMRESDVIVFESGIAVAFIELAKRVNPAAKLVYRASDGLSTINVASYIEREFDRVAPTLDVIALVSPAMAAEVVSRDNVFHVGHGVDHNLDQLGDPSPYAEGIHAVAVGSMLFDPEFFVVASKAFPQVTFHVIGSGMGRHPGYGDNVIVYGEMKHAQTIGYIKHARFGIAPYASEQVPVYLADSSMKLLQYDFFGLPAVCPNAVVGPYKSRFGYTPGNADSVIAAITQALEAPRVRYRQCLNWSDTTDRVLDPRAYPETRLYPHPPTAAPQLSSEAALSHHHHHHH,soluble
13,MGYHTFDAGRADKLEDAQERYRSLSAEELCWALSASSDETVADLGSGTGFYTDDVAPAVDHVYAVDIQEAMHDYYRKKGVPDNVDLVTSAVDDLPFDTSSLDAAFSTMTYHEFASDGALREVARVLKPGGTFAIADWAASGSGRNGPPVDERFSAAEATDALRQHGFTVEFEAVRPETFLLVVSADLEHHHHHH,soluble
14,MGYIQSGKSKVEIVNVSETVTSAANVSQYPVESGAPITDNMMYTGGPVTISGWILAKNGNAAEQAYNTLVAWQKDVRWIVYRGRSYFKNAVIQDISKGYDTVENGFTITITLQPIRVAKTIWEKIPQPPVAKQPSKPSNAVYVTVQPGNTYWGWWQQYGTSIQQLRDWNKWPDRFIPIGARARVK,not soluble
15,MGYRIEFDPRAEKELEKLDREVARRILRFLRERVATLEDPRSLGEPLRGPELGRFWKYRVGDYRLICHIQDREATVLVLRVGHARDVYR,soluble
16,MGYTLADKIWRSHVVRSAEGEPDLVYIDMHLLHEVNTPAAFAGLRAAGRTVRRPDLTLGTEDHNTPTDDVLRMITDPGAVEQLDHIRRNCRDFGIELYSLGDSARGIVHVIGPELGLTQPGMTLVCCDSHTSTHGAFGVLAFGIGTSQVEHVLATQTLPMAPMQN,not soluble
17,MHCPFCRHPDSRVIDSRETDEGQAIRRRRSCPECGRRFTTVETAVLAVVKRSGVTEPFSREKVISGVRRACQGRQVDDDALNLLAQQVEDSVRAAGSPEIPSHDVGLAILGPLRELDEVAYLRFASVYRSFSSADDFAREIEALRAHRNLSAHS,soluble
18,MHEITLCQRALELIEQQASAYGAKRVTAVWIKIGAFSCVETSALSFCFDLVCRGTIAEGCKLHLEEQEAECWCEHCQQYVTLLTHRVRRCPQCHSDTLRIVADDGLQIRRIEIDETED,not soluble
19,MHESARHIVDLYQRHARAWDQRRRANPEAFEGEQAWLERFRRVMGQGGQVLDLGCGGGEPIARNLIEHQCAVTGVDSSATLLDHCRQRFAGQQWIHADMRSLALDQDFAGILAWNSLFHLSPDDQRAMFTVFERHAGPGCALMFTSGPEAGEAIGEFEGEALYHASLSPGEYCTLLDTHGFEVVQHISEDPDCCGFTVWLARAIDWGLEHHHHHH,not soluble
20,MHEWALADAIVRTVLDYAQKEGASRVKAVKVVLGELQDVGEDIVKFAMEELFRGTIAEGAEIIFEEEEAVFKCRNCGHVWKLKEVKDKLDERIREDIHFIPEVVHAFLSCPKCGSHDFEVVKGRGVYISGIMIEKEGEELEHHHHHH,soluble
21,MHHHHHHAMGIPGHAFSKIKVKQPVVELDGDEMTRIIWDKIKKKLILPYLDVDLKYYDLSVESRDATSDKITQDAAEAIKKYGVGIKCATITPDEARVKEFNLHKMWKSPNGTIRNILGGTVFREPIVIPRIPRLVPRWEKPIIIGRHAHGDQYKATDTLIPGPGSLELVYKPSDPTTAQPQTLKVYDYKGSGVAMAMYNTDESIEGFAHSSFKLAIDKKLNLFLSTKNTILKKYDGRFKDIFQEVYEAQYKSKFEQLGIHYEHRLIDDMVAQMIKSKGGFIMALKNYDGDVQSDIVAQGFGSLGLMTSILVTPDGKTFESEAAHGTVTRHYRKYQKGEETSTNSIASIFAWSRGLLKRGELDNTPALCKFANILESATLNTVQQDGIMTKDLALACGNNERSAYVTTEEFLDAVEKRLQKEIKSIE,soluble
22,MHHHHHHGSMSMPNHQNMLDNQTILITGGTGSFGKCFVRKVLDTTNAKKIIVYSRDELKQSEMAMEFNDPRMRFFIGDVRDLERLNYALEGVDICIHAAALKHVPIAEYNPLECIKTNIMGASNVINACLKNAISQVIALSTDKAANPINLYGATKLCSDKLFVSANNFKGSSQTQFSVVRYGNVVGSRGSVVPFFKKLVQNKASEIPITDIRMTRFWITLDEGVSFVLKSLKRMHGGEIFVPKIPSMKMTDLAKALAPNTPTKIIGIRPGEKLHEVMIPKDESHLALEFEDFFIIQPTISFQTPKDYTLTKLHEKGQKVAPDFEYSSHNNNQWLEPDDLLKLL,soluble
23,MHHHHHHMGLNTAIATRVNGTPPPEVPIADIELGSLDFWALDDDVRDGAFATLRREAPISFWPTIELPGFVAGNGHWALTKYDDVFYASRHPDIFSSYPNITINDQTPELAEYFGSMIVLDDPRHQRLRSIVSRAFTPKVVARIEAAVRDRAHRLVSSMIANNPDRQADLVSELAGPLPLQIICDMMGIPKADHQRIFHWTNVILGFGDPDLATDFDEFMQVSADIGAYATALAEDRRVNHHDDLTSSLVEAEVDGERLSSREIASFFILLVVAGNETTRNAITHGVLALSRYPEQRDRWWSDFDGLAPTAVEEIVRWASPVVYMRRTLTQDIELRGTKMAAGDKVSLWYCSANRDESKFADPWTFDLARNPNPHLGFGGGGAHFCLGANLARREIRVAFDELRRQMPDVVATEEPARLLSQFIHGIKTLPVTWS,soluble
